Each block holds one molecule with its values, some of them ahead of it. No end group written: not given here.
Columns and labels:
[1] = target: T1, RXFP3 (Homo sapiens, UniProt Q9NSD7); experiment: Inhibition of forskolin-induced cAMP accumulation in RXFP3 expressing CHO-K1 cells (cAMP reporter gene assay); assay type: cell-based; conditions: CHO-K1, read-out: forskolin-induced cAMP production inhibited to
T1 construct: expressed in transfected cells; host or cells: CHO-K1
T1 sequence (Q9NSD7 1-469): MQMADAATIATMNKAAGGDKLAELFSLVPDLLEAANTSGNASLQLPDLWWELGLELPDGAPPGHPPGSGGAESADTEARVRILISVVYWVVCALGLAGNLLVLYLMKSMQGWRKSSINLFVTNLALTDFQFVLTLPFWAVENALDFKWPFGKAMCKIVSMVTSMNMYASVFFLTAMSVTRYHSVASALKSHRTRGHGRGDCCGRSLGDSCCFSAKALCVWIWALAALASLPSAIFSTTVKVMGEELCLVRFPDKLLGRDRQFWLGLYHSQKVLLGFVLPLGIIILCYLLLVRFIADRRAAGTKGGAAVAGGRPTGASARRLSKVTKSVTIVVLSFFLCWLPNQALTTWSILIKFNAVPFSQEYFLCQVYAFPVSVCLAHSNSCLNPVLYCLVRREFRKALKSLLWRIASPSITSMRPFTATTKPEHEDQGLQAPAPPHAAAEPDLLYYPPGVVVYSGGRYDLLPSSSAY
Experimental: CHO-K1 cells were subcultured in clear 96 well plates (10,000 cells/well/200 μl media) and after 24 h, they were co-transfected with pCRE-8-galactosidase reporter plasmid. 24 hours later, cells were treated with 5 μM forskolin together with increasing concentration of relaxin-3 polypeptides. […] The stimulation was carried out for 6 h after which the media was aspirated and the cells were frozen at −80° C. overnight. The cells were thawed to room temperature and the amount of cAMP-induced β-galactosidase expression was measured by adding 25 μl of 0.1× buffer A (100 mM Na2HPO4 (pH 8.0), 2 mM MgSO4, 0.1 mM MnCl2) and shaking at room temperature for 10 minutes to hypotonically lyse the cells. Then 100 μl of buffer B (similar to buffer A with additional 0.5% Triton X-100 and 40 mM β-mercaptoethanol) was added to each well with shaking for 10 minutes at room temperature. Finally, 25 μl of substrate for 6-galactosidase (chlorophenol red β-D galactopyranoside) was added to each well with shaking until the colour change was observed. The absorbance was measured at 570 nm on Victor^3 plate reader (PerkinElmer, Glen Waverly, VIC). The data were analysed using GraphPad PRISM 4 (GraphPad Inc., San Diego, USA). […] Statistical analysis was carried out using one-way ANOVA with Bonferroni's multiple comparison test.

[2] = target: T2, RXFP1 receptor (UniProt Q9HBX9 1-757, limits assumed); experiment: cell-based or functional assay
T2 sequence (looked up): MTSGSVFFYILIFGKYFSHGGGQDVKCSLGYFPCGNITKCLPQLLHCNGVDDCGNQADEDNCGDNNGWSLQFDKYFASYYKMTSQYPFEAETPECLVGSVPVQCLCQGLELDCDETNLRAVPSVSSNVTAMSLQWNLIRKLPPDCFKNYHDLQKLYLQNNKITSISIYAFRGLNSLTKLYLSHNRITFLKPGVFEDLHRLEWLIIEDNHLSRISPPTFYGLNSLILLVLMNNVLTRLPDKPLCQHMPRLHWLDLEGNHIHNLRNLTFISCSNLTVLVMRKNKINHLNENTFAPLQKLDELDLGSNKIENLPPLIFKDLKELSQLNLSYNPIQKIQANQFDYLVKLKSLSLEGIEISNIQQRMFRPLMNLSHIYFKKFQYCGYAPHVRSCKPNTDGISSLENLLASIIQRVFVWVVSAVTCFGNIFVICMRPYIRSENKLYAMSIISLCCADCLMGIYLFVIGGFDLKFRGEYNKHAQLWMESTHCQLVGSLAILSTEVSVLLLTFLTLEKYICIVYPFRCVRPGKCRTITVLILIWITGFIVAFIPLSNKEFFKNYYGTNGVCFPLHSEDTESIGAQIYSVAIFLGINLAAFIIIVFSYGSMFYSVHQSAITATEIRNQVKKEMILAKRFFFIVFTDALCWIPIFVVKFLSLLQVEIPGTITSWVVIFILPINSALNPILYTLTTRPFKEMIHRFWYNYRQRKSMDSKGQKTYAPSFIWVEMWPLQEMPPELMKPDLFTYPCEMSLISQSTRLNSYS

[3] = tested on: human dermal fibroblasts (BJ3 cells) which express RXFP1; experiment: TGF-β1-induced collagen expression in human dermal fibroblasts (hydroxyproline content); assay type: cell-based; conditions: TGF-β1 2 ng/mL plus peptide 100 ng/mL, 72 hr
Experimental: The deposited collagen into the cell layer was hydrolysed and analysed for hydroxyproline content, as previously described (Samuel et al., 1996, Endocrinology 137:3884-3890). Hydroxyproline values were then converted to total collagen content by multiplying by a factor of 6.94 (based on hydroxyproline representing approximately 14.4% of the amino acid composition of collagen in most mammalian tissues). These experiments were performed 3-4 separate times in duplicate.

[4] = target: T2, RXFP1 receptor; experiment: competition with Eu-labelled H2 relaxin on HEK-293T cells expressing RXFP1
[5] = target: T3, RXFP4 receptor (UniProt Q8TDU9 1-374, limits assumed); experiment: cell-based or functional assay
T3 sequence (Q8TDU9 whole entry): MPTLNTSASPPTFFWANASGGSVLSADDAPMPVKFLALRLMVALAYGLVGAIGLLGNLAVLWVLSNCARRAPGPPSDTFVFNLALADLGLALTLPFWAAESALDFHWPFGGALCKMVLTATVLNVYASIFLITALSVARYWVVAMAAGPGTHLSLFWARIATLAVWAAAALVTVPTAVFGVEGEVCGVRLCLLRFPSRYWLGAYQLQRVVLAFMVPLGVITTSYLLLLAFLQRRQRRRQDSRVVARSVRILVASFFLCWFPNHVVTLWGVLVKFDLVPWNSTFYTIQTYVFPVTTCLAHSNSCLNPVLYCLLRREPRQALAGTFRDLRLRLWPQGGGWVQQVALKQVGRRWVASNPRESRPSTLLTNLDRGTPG

[6] = target: T3, RXFP4 receptor; experiment: competition with 2.5 nM Eu-labelled mouse INSL5 on CHO-K1 cells expressing RXFP4
[7] = target: T4, RXFP3 receptor (UniProt Q9NSD7 1-469, limits assumed); experiment: cell-based or functional assay
T4 sequence (looked up): T1 sequence (Q9NSD7 1-469)

[8] = target: T4, RXFP3 receptor; experiment: competition with 0.5 nM Eu-labelled INSL5A/H3 relaxinB on CHO-K1 cells expressing RXFP3
[9] = target: T4, RXFP3 receptor; experiment: cell-based or functional assay; remark: listed apart in the source

Molecule: CC[C@H](C)[C@@H]1NC(=O)[C@H](Cc2ccccc2)NC(=O)[C@H](CCC(=O)O)NC(=O)[C@H](CCCNC(=N)N)NC(=O)CNC(=O)[C@@H](NC(=O)[C@H](CC(C)C)NC(=O)[C@H](CCCNC(=N)N)NC(=O)[C@@H](NC(=O)CNC(=O)[C@H](Cc2ccc(O)cc2)NC(=O)[C@@H]2CCCN2C(=O)[C@H](C)NC(=O)[C@H](C)NC(=O)[C@@H](N)CCCNC(=N)N)C(C)C)CSSC[C@@H]2NC(=O)[C@@H](NC(=O)[C@H](CO)NC(=O)[C@H](CO)NC(=O)[C@H](CO)NC(=O)[C@H](CC(C)C)NC(=O)CNC(=O)[C@H](C)NC(=O)[C@H](CC(C)C)NC(=O)[C@@H](NC(=O)[C@@H](N)CC(=O)O)C(C)C)CSSC[C@H](NC(=O)CNC(=O)[C@H](Cc3c[nH]c4ccccc34)NC(=O)[C@H](CCCCN)NC2=O)C(=O)N[C@@H](CO)C(=O)N[C@@H](CCCCN)C(=O)N[C@@H](CO)C(=O)N[C@@H](CCC(=O)O)C(=O)N[C@@H]([C@@H](C)CC)C(=O)N[C@@H](CO)C(=O)N[C@@H](CO)C(=O)N[C@@H](CC(C)C)C(=O)N[C@H](C(=O)O)CSSC[C@@H](C(=O)NCC(=O)NCC(=O)N[C@@H](CO)C(=O)N[C@@H](CCCNC(=N)N)C(=O)N[C@@H](Cc2c[nH]c3ccccc23)C(=O)O)NC(=O)[C@H]([C@@H](C)O)NC(=O)[C@H](Cc2ccccc2)NC(=O)[C@H]([C@@H](C)CC)NC(=O)[C@H](C(C)C)NC(=O)[C@H](C)NC(=O)[C@H](CCCNC(=N)N)NC1=O [H3 relaxin]
activity at 0.01 µM [1]: ~50%

Molecule: H2 relaxin: native human relaxin-2, cognate ligand of RXFP1 (chain 1 QLYSALANKCCHVGCTKRSLARFC; chain 2 DSWMEEVIKLCGRELVRAQIAICGMSTWS)
inhibition of TGF-β1 induced collagen compared to TGF-β1 alone [3]: 35%

B1: analogue 18 (peptide)
chain 1: CKWGASKSEISSLC
chain 2: RLCGREFIRAVIFTCGGSRW
notes: Synthetic
binding result [4]: no binding (tested: <5 (pIC50/pKi, M))
pEC50 (M), activation of RXFP4 [5]: 8.1 M (as -log10)

B2: analogue 19 (peptide)
chain 1: CKWGASKSEISSLC
chain 2: CGREFIRAVIFTCGGSRW
notes: Synthetic
binding result [4]: no binding (tested: <5 (pIC50/pKi, M))
pEC50 (M), activation of RXFP4 [5]: 8.46 M (as -log10)

B6: native human relaxin-3 (H3 relaxin) (ligand)
chain 1: DVLAGLSSSCCKWGCSKSEISSLC
chain 2: RAAPYGVRLCGREFIRAVIFTCGGSRW
modifications: disulfide (positions not given here); also: one intra-A-chain and two inter-chain disulphide bonds, places not given here
notes: Two-chain peptide; one intra-A-chain and two inter-chain disulphide bonds; also called native relaxin-3
pEC50 (M), cAMP accumulation in HEK-293 cells expressing RXFP1 [2]: 8.74 M (as -log10)
pEC50 (M), activation of RXFP4 [5]: 8.94 M (as -log10)

B7: analogue 14 (peptide)
chain 1: DVLAGLSSSACKWGASKSEISSLC
chain 2: RAAPYGVRLCGREFIRAVIFTCGGSRW
modifications: disulfide (positions not given here)
notes: Synthetic; no intra-A-chain disulphide, two inter-chain disulphides kept
pKi [8]: 7.3 M (as -log10)
pEC50 (M), cAMP accumulation in HEK-293 cells expressing RXFP1 [2]: 6.23 M (as -log10)
pEC50 (M), inhibition of forskolin-induced cAMP, reporter gene assay in CHO-K1 cells expressing RXFP3 [9]: 7.9 M (as -log10)

Now from value to molecule:

inhibition of TGF-β1-induced collagen in human dermal fibroblasts (BJ3 cells) [2]: 35%
Molecule: H2 relaxin (from UniProt P04090 162-185; P04090 25-53) (ligand)

binding result [4]: no binding (tested: <5 (pIC50/pKi, M))
pEC50 (M), activation of RXFP4 [5]: 7.85 M (as -log10)
B3: analogue 17 (peptide)
chain 1: CKWGASKSEISSLC
chain 2: GVRLCGREFIRAVIFTCGGSRW
notes: Synthetic

binding result [4]: no binding (tested: <5 (pIC50/pKi, M))
pIC50 [6]: 7.1 M (as -log10)
pEC50, ERK1/2 phosphorylation in stable CHO-RXFP3 cells (AlphaScreen) [7]: 10.4 -log10 (M not printed)
pEC50 (M), activation of RXFP4 [5]: 7.7 M (as -log10)
B4: analogue 15 (peptide)
chain 1: CKWGASKSEISSLC
chain 2: RAAPYGVRLCGREFIRAVIFTCGGSRW
modifications: disulfide (positions not given here)
notes: Synthetic; two inter-chain disulphides, no intra-A-chain disulphide; also called [R3A(11-24,C15→A)B]; RXFP3-selective agonist, analogue 2

pIC50 [6]: 7.33 M (as -log10)
pEC50 (M), activation of RXFP4 [5]: 8.51 M (as -log10)
B5: human INSL5 (ligand)
chain 1: QDLQTLCCTDGCSMTDLSALC
chain 2: KESVRLCGLEYIRTVIYICASSRW
notes: mature; Native receptor ligand used as comparator at RXFP4; also called hINSL5; native INSL5

From patent US20140024592A1, “Modified Relaxin Polypeptides” (Howard Florey Institute of Experimental Physiology and …, priority 2010, published 2014)
